Laboratory results as given in patent publication US20110091968A1 (KABUSHIKI KAISHA HAYASHIBARA SEIBUTSU KAGAKU KENKYUJO, published 2011).

Legend:
Experiment in all cases: Western blotting
[1] = target: T1, recombinant human IFNα subtype α1 (human, UniProt P0DY56 24-189)
T1 construct: also called rIFNα1; IFNα1
Text: (§1) Proteins, contained in a part of the gel ranging from about 20 to about 29 kilo daltons (abbreviated as “kDa”, hereinafter) corresponding to the molecular weights of the proteins of IFNs, were transferred to a nitrocellulose membrane and soaked in “BlockAce”, a product name of a blocking solution to inhibit non-specific reaction commercialized by Dainippon Sumitomo Pharma, Co., Ltd., Tokyo, Japan. The resulting nitrocellulose membrane after the blocking treatment was soaked in a solution, containing 2 μg/ml of any of the nine monoclonal antibodies purified by using PROTEIN G SEPHAROSE, at ambient temperature for one hour, and washed with 50 mM Tris-HCl buffer (pH 7.5) containing 0.05% (v/v) tween 20 to remove excessive amounts of antibodies. The resulting nitrocellulose membrane was soaked in a solution containing an HRP labelled anti-mouse immunoglobulin or anti-rat immunoglobulin (both of which are commercialized by DakoCytomation, Denmark) at ambient temperature for one hour. The resulting membrane was washed with 50 mM Tris-HCl buffer (pH 7.5) containing 0.05% (v/v) tween 20 for 30 min and subjected to a color reaction by using commercialized “ECL western blotting detection reagent and Hyperfilm ECL”, a product name of a Western blotting detection kit commercialized by GE Healthcare Biosciences, Tokyo, Japan.

[2] = target: T2, recombinant human IFNα subtype α5 (human, UniProt P01569 24-189, limits assumed)
T2 construct: also called rIFNα5; IFNα5
Text: as §1

[3] = target: T3, recombinant human IFNα subtype α6 (human, UniProt P05013 24-189, limits assumed)
T3 construct: also called rIFNα6; IFNα6
Text: as §1

[4] = target: T4, recombinant human IFNα subtype α10 (human, UniProt P01566 24-189)
T4 construct: also called rIFNα10; IFNα10
Text: as §1

human IFNβ = human IFNβ (human, UniProt P01574 22-187)
human IFNγ = target: T5, human IFNγ (human, UniProt P01579 24-166, limits assumed)
T5 sequence (looked up): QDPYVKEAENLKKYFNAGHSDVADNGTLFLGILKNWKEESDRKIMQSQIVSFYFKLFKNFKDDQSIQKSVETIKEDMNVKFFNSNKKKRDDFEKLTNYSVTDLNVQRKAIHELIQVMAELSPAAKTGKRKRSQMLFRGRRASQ

[5] = target: T6, human tumor necrosis factor (human, UniProt P01375 77-233)
T6 construct: also called human TNFα; TNFα

Measured: binding result

T2 sequence (P01569 24-189 limits assumed): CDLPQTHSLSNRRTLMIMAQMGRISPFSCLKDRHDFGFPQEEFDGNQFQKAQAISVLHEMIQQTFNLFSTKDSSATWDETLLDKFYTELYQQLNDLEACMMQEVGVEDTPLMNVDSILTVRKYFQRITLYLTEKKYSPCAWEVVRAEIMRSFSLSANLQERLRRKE
Sequence of human IFNβ (P01574 22-187 limits assumed): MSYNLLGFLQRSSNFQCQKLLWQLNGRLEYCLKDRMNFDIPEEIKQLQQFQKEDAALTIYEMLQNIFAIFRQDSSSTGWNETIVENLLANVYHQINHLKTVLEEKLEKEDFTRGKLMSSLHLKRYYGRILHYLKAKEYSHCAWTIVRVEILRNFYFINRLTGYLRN
T4 sequence (P01566 24-189 limits assumed): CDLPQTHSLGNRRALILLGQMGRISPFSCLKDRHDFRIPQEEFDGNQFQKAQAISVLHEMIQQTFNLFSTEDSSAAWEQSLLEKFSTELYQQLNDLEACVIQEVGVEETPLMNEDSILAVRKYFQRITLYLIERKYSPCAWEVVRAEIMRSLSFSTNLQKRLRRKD
T3 sequence (P05013 24-189 limits assumed): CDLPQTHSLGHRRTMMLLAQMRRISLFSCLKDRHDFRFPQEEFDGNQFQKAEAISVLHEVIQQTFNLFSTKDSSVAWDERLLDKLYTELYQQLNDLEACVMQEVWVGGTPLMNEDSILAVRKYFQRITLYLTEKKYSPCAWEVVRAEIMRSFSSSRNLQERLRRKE
T1 sequence (P0DY56 entry or part of it limits assumed): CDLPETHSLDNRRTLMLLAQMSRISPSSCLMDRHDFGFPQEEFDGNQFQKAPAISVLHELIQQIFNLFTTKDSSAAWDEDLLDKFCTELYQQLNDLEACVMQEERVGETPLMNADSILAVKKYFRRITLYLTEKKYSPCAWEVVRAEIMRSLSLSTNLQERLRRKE
T6 sequence (P01375 77-233 limits assumed): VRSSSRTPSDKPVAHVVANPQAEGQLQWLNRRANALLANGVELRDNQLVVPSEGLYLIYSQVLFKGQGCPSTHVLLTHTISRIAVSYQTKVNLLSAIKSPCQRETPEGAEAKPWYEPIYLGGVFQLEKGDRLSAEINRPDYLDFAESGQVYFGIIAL

B1: α8#139 mAb (antibody, IgG1, V domains shown)
VH: QVQLKQSGPGLVQPSQSLSITCTVSGFSLTSYGVHWIRQSPGKGLEWLGVIWSGGNTDYNAAFISRLSITKDNSKSQFFFKMNSLQAKDTAIYYCARGRGNYVPFTYWGQGTLVTVSA
VL: QIVLTQSPTIMSASLGERVTMTCTASSSVSSTYLHWYQQKPGSSPKLLIYSTSNLASGVPARFSGSGSGTSYSLTISNMEAEDAATYYCHQYHRSPPMTFGGGTKLEIK
notes: HRP-labelled where used as labelled antibody; also called FERM BP-11081
no binding: all assays above

B2: α8Y36-2 mAb (antibody, IgG1, V domains shown)
VH: EVQLVESGGGLVQPGRSLKLSCAASGFTFSKYGMAWVRQAPTKGLEWVASISTGGYNTYYRDSVKGRFTISRDNAKNTQYLQMDSLRSEDTATYYCTRPPAFDHWGQGIMVTVSS
VL: DIKMTQSPSFLSASVGDRVTINCKASQNIDKYLNWYQQKLGKAPRLLMYNTNNLQTGIPSRFSGSGSTTDFTLTISSLQPEDVATYFCSHHSVRPYTFGAGTKLELK
notes: also called mAb-IFNα8Y36-2; FERM BP-11082
no binding: all assays above
